Laboratory results as given in US12710427B2, “Anti-human neurotensin receptor 1 antibody and use thereof” (National Health Research Institutes, priority 2020, dated 2026).

Key:
[1] = biological target: T1, NTSR1 on A549 cells (Homo sapiens, UniProt P30989); experiment: Flow cytometry (FACS) binding of anti-NTSR1 antibodies on A549 cells
T1 construct: endogenous in cells; host or cells: A549 (NSCLC)
Description: A total of 1×10^6 cells were reacted with an anti-NTSR1 antibody in 100 μL of FACS buffer (PBS containing 0.5% BSA) for 60 minutes at 4° C. and washed two times to remove excess antibody. Secondary FITC (BD Pharmingen™) conjugated mouse anti-human IgG antibodies were incubated for an additional 60 minutes on ice. Cells were washed again and followed by an additional incubation with 1 ml PBS containing 0.5 mg/mL propidium iodide at 4° C. for 10 minutes. Data were collected on 10,000 living cells by FACS (Bio-Red S3e cell sorter). Fluorescence intensity from channel FL-1 was calculated with Flow Jo flow […] cytometry analysis software.

[2] = biological target: T2, NTSR1 ECL2 peptide (Homo sapiens, UniProt P30989); experiment: Surface plasmon resonance with immobilized ECL2 peptide; conditions: SPR, 1:1 binding model
Description: The interaction of NTSR1-specific mAbs with extracellular loop 2 (ECL2) peptides of NTSR1 was measured by surface plasmon resonance using an Open SPR (Nicoya, Canada) instrument. Biotin-conjugated ECL2 peptides were immobilized on a streptavidin-coated sensor chip by injecting the peptides diluted in HBS-EP5 buffer saline (20 mM HEPES, 250 mM NaCl, 3 mM EDTA, 0.05% Tween 20 and 0.5% BSA, pH 7.4) at a concentration of 10 μg/ml at a flow rate of 30 μl/min. For kinetic experiments, NTSR1-specific mAbs diluted in HBS-EP5 at concentrations ranging from 24 to 1.5 nM were injected at a flow rate of 30 μl/min over the immobilized ECL2 peptides. Binding of the NTSR1-specific mAbs at different concentrations to the immobilized ECL2 peptides were analyzed using the TraceDrawer software (Nicoya, Canada). Association rate (ka), dissociation rate (kd), and affinity (KD) were calculated using global analysis, fitting the data to a simple 1:1 binding model.
Target sequence in this assay (P30989 206-234 limits assumed): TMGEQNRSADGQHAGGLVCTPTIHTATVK

[3] = test system: cyclic ECL2 peptide of NTSR1; experiment: NTSR1-binding affinity ELISA (alanine scanning variants); design: species or system human; conditions: h7C3-2 variants
Description: The NTSR1-binding capacity of different antibodies were measured by ELISA. Briefly, NeutrAvidin 96-well plates (Pierce Cat:15128) were coated with cyL2-Biotin peptides at a final concentration of 5 μg/ml at […]. On the following day, the coating solution was removed, and the plates were blocked with 5% (v/v) non-fat dry milk in phosphate buffer saline (PBS) for 1 hour. After washing with PBST, gradient concentrations of anti-NTSR1 antibodies were added in triplicate. After 1 hour of incubation, the plate was washed three times with PBST, followed by the addition of horseradish peroxidase (HRP)-conjugated goat anti-human IgG Fc antibody (100 μL) into each well for an additional hour at RT. Finally, 100 μL of tetramethylbenzidine (TMB) substrate was added into each well to produce color for visualization. After 2 minutes of incubation, 100 μL of 2M H2SO4 was used to stop the reaction. The absorbance of each well was read at 450 nm with a plate reader. Flow cytometry

[4] = test system: A549; experiment: In vitro cell cytotoxicity assay (CellTiter-Glo); assay type: cell-based
Description: (§1) The number of living cells were determined using the CellTiter-Glo® Luminescent Cell Viability Assay (Promega G7571). Cells were plated in 96-well opaque Costar plates (Cat number 136101). In brief, 500-2500 cells in 90 μL media were added to each well in quadruplicate and allowed to adhere for 16 hours. Anti-NTSR1 (dose range: 0-500 nM), anti-NTSR1-MMAE (dose range: 0-500 nM) or Paclitaxel (dose range: 0-100 nM) were added in […] 72-120 hours, medium was removed, and 200 μL of CellTiter-Glo® viability reagent contain culture medium (1:1) was added to each well and placed on an orbital shaker in the dark for 2 minutes. The plate was allowed to sit at RT for 10 minutes before being read on a GloMax® Explorer Multimode Microplate Reader (GM3500).

[5] = test system: H1299; experiment: In vitro cell cytotoxicity assay (CellTiter-Glo); assay type: cell-based
Description: as §1

[6] = test system: HA22T-Luc; experiment: In vitro cell cytotoxicity assay (CellTiter-Glo); assay type: cell-based
Description: as §1

[7] = test system: HA22T; experiment: In vitro cell cytotoxicity assay (CellTiter-Glo); assay type: cell-based
Description: as §1

[8] = test system: Mahlavu; experiment: In vitro cell cytotoxicity assay (CellTiter-Glo); assay type: cell-based
Description: as §1

[9] = test system: PC-3; experiment: In vitro cell cytotoxicity assay (CellTiter-Glo); assay type: cell-based
Description: as §1

[10] = test system: A549 cells; experiment: Internalization of NTSR-1 antibody (flow cytometry); assay type: cell-based; conditions: A549, 10 μg/ml
Description: NTSR-1 antibody was used for flow cytometry analysis to compare the NTSR1 expression level in different lung and HCC cell lines, including A549, H1299, HA22T and Mahlavu. A total of 1×10^6 cells were reacted with the h7C3-3 antibody in FACS buffer for 60 minutes at 4° C. and washed two times to remove excess antibody. Cells were then transferred to 4° C. or 37° C. for 0, 0.5, 2, 5, 24 hours and followed by an additional incubation with secondary anti-human IgG Fc-PE (BioLegend) antibody for 60 minutes at 4° C. Cells were washed again, and data were collected by BD LSRFortessa. Fluorescence intensity from channel FL-1 was calculated with Flow Jo flow cytometry analysis software.

[11] = test system: NTSR1-expressing A549 cancer cells; experiment: Internalization of h7C3-3 or h7C3-3-ADC in A549 cells (flow cytometry); assay type: cell-based; conditions: A549, 1 μg/ml, 37° C. for 90 minutes
Description: A total of 1×10^6 cells were reacted with the indicated antibody or ADC in 100 μL of FACS buffer for 60 minutes at 4° C. and washed to remove excess antibody or ADC. Cells were then transferred to 4° C. or 37° C. for 90 minutes. To determine the relative number of h7C3-3 or h7C3-3-ADC on the cell surface, cells were stained with saturating amounts of FITC (BD Pharmingen™) conjugated mouse anti-human IgG antibodies and incubated for additional 60 minutes on ice. Cells were washed again and followed by an additional incubation with 1 ml PBS containing 0.5 mg/mL propidium iodide at 4° C. for 10 minutes. Data were collected on 10,000 living cells by FACS (Bio-Red S3e cell sorter). Fluorescence intensity from channel FL-1 was calculated with Flow Jo flow cytometry analysis software. Preparation of anti-NTSR1 antibody-drug conjugates (ADCs)

[12] = biological target: T3, NTSR1 (Homo sapiens, UniProt P30989); experiment: Immunohistochemistry staining of PC-3 xenograft tumor tissue; conditions: 2 μg/ml antibody
T3 construct: Solid tumors were excised from PC-3 xenograft mice without treatment, followed by immunohistochemistry staining using antibodies specific for NTSR1; from tissue; host or cells: PC-3 prostate cancer xenograft tumour grown in mice
T3 sequence (P30989 whole entry): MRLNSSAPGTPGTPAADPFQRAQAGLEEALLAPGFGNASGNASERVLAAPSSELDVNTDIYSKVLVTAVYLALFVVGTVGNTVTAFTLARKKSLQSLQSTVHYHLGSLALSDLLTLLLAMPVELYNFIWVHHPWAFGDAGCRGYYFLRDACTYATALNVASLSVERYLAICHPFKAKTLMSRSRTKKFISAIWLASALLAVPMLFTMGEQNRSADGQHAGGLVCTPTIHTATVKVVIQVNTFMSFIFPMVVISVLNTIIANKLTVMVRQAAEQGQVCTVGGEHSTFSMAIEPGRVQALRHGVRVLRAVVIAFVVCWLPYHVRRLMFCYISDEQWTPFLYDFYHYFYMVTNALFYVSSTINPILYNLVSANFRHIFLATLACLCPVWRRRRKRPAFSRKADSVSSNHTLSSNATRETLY
Description: Deparaffinized tissue sections (4 μm) were subjected to heat-induced epitope retrieval in Tris-EDTA buffer (pH 9) at 95° C. for 30 minutes. The sections were blocked with inhibitor CM at 37° C. for 4 minutes. The slides were incubated with primary antibody including 2 μg/ml anti-NTSR1-B12 (SC-376958, Santa Cruz Biotechnology) and different […] antibody clones (7C3, h7C3-2 and h7C3-3) for 1 hour. The slides were then incubated with appropriate secondary antibodies; OmniMap anti-mouse-HRP for anti-NTSR1-B12 and anti-human-HRP for 7C3, h7C3-2 and h7C3-3 at RT for 30 minutes. The staining was performed with diamino-benzidine tetrahydrochloride.

[13] = biological target: T2, NTSR1 ECL2 peptide; experiment: Kon (M^-1s^-1)
Description: (§2) Table printed on a drawing sheet, FIG. 2
Head of the field: Kon (M^-1s^-1)
(§3) The patent's description of the figure: FIG. 2 is a graph showing affinity and kinetics data of h7C3-3. The binding affinity between h7C3-3 and NTSR1 ECL2 peptide was determined by surface plasmon resonance (SPR).
(§4) First copying reader's note: Table stands under the sensorgram plot headed h7C3-3 inside the same frame.
(§5) Where the first naming reader finds the target: description_of_the_figure: The binding affinity between h7C3-3 and NTSR1 ECL2 peptide was determined by surface plasmon resonance (SPR).

[14] = biological target: T2, NTSR1 ECL2 peptide; experiment: Koff (s^-1)
Description: as §2
Head of the field: Koff (s^-1)
as §3, §4, §5

T1 sequence (P30989 whole entry): as above

FACS binding (%, 1 μg/ml) ([1]; A549 cells, antibody 1 μg/ml): 98.7%
FACS binding (%, 10 μg/ml) ([1]; A549 cells, antibody 10 μg/ml): 100%
binding on cell surface ([1]; A549 cells, one hour incubation at 4° C.): have binding efficiency on cell surface
affinity for NTSR1 on A549 cells compared with h7C3-2 ([1]; FACS, h7C3-2 variant): higher affinity
EC50 ([1]; relative mean fluorescence intensity (MFI) on A549 cells): 1.1 mg/L
Kd [2]: 0.0003 µM
binding affinity to peptide compared with h7C3-2 (in words) [3]: higher binding affinity
immunohistochemistry staining [12]: clustered and more intense
Kon [13]: 441000 M⁻¹ s⁻¹
Koff [14]: 0.000134 s⁻¹
B1: h7C3-3: 7C3 variant bearing T28A in CDR H1, Y100H in CDR H3 and S97A in CDR L3 (antibody, V domains shown)
VH: QVQLQQPGSVLVRPGASVKLSCKASGYAFTSSWIHWAKQRPGQGLEWIGQIRPNSGNTYYNEKFKVKATLTVDTSSSTAYVDLSSLTSEDSAVYYCARYHYGFDYWGQGTLVTVSS
VL: DVLMTQTPLSLPVSLGDQASISCRSSQSIVHSNGNTYLEWYLQKPGQSPKLLIYKVSNRFSGVPDRFSGSGSGTDFTLKISRVEAEDLGVYYCFQGAHLPWTFGGGTKLEIKR
IC50 [4]: > 500 nM
IC50 [5]: > 500 nM
IC50 [6]: > 500 nM
IC50 [7]: > 500 nM
IC50 [8]: > 500 nM
IC50 [9]: > 500 nM
mean fluorescence intensity (MFI) upon shifting cells from 4° C. to 37° C. (internalization) [10]: decreased gradually
internalization efficiency [11]: internalized efficiently
